Results published in article PMC4600981.

Biological target: FvCamlp (calmodulin like EF hand protein of Flammulina velutipes), freed of the GST tag (Flammulina velutipes)
Test: SEC; Superdex 200, 25 mM Tris-HCl pH 7.5, 150 mM NaCl, 4 °C, flow 0.4 ml/min; in absence (5.0 mM EGTA) and presence of Ca2+ (5.0 mM); monomer to dimer

stoichiometry N: 2
Substance: FvCamlp (calmodulin like EF hand protein of Flammulina velutipes), freed of the GST tag (natural protein)
